# Assay results reported in patent US20240117057A1 (CELLDEX THERAPEUTICS, published 2024).
# Read-outs that look alike come from different tables or passages of the source.
# T1: recombinant human FcγRIIa (human, UniProt P12318 36-218, limits assumed)
# T1 construct: Histidine-tagged recombinant receptor captured on anti-Penta-His biosensors; not shown: histidine tag
# T1 sequence (looked up): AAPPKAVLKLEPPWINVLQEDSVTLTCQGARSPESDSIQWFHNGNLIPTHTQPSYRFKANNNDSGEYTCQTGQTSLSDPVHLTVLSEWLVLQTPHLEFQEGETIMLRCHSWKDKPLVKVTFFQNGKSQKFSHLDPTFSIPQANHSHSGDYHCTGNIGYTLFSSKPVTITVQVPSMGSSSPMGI
# T2: recombinant human FcγRIIb (human, UniProt P31994 43-217, limits assumed)
# T2 construct: Histidine-tagged recombinant receptor captured on anti-Penta-His biosensors; not shown: histidine tag
# T2 sequence (looked up): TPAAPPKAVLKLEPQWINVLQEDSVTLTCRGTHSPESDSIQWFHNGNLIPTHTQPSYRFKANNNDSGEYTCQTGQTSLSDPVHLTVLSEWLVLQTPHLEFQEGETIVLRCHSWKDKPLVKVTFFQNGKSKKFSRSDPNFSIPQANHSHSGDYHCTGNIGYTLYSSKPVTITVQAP
# B1: mAbc (antibody, human IgG1, kappa)
# heavy: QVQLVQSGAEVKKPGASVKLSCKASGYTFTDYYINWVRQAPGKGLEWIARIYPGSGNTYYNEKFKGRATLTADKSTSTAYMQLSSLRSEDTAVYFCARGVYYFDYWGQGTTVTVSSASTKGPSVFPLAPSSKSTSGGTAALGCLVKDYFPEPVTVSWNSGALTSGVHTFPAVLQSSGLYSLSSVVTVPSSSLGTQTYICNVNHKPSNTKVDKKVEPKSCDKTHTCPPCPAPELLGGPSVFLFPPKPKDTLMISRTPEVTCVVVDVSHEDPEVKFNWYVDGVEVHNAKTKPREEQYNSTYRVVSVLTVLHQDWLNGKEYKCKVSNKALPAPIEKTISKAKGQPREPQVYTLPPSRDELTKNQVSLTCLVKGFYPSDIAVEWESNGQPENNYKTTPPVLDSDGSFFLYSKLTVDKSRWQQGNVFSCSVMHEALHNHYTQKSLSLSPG
# light: DIVMTQSPSSLSASVGDRVTITCKASQNVRTNVAWYQQKPGKAPKALIYSASYRYSGVPDRFTGSGSGTDFTLTISSLQPEDFADYFCQQYNSYPRTFGGGTKVEIKRTVAAPSVFIFPPSDEQLKSGTASVVCLLNNFYPREAKVQWKVDNALQSGNSQESVTEQDSKDSTYSLSSTLTLSKADYEKHKVYACEVTHQGLSSPVTKSFNRGEC
# notes: Positions are EU numbers; also called corresponding antibody with a wild-type (unmutated) IgG1 Fc domain; copies: 2 + 2
# B2: mAb1 (antibody, human IgG1, kappa)
# heavy: QVQLVQSGAEVKKPGASVKLSCKASGYTFTDYYINWVRQAPGKGLEWIARIYPGSGNTYYNEKFKGRATLTADKSTSTAYMQLSSLRSEDTAVYFCARGVYYFDYWGQGTTVTVSSASTKGPSVFPLAPSSKSTSGGTAALGCLVKDYFPEPVTVSWNSGALTSGVHTFPAVLQSSGLYSLSSVVTVPSSSLGTQTYICNVNHKPSNTKVDKKVEPKSCDKTHTCPPCPAPEAQGGPSVFLFPPKPKDTLYITREPEVTCVVVDVSHEDPEVKFNWYVDGVEVHNAKTKPREEQYNSTYRVVSVLTVLHQDWLNGKEYKCQVSNKALPAPIEKTISKAKGQPREPQVYTLPPSRDELTKNQVSLTCLVKGFYPSDIAVEWESNGQPENNYKTTPPVLDSDGSFFLYSKLTVDKSRWQQGNVFSCSVMHEALHNHYTQKSLSLSPG
# light: DIVMTQSPSSLSASVGDRVTITCKASQNVRTNVAWYQQKPGKAPKALIYSASYRYSGVPDRFTGSGSGTDFTLTISSLQPEDFADYFCQQYNSYPRTFGGGTKVEIKRTVAAPSVFIFPPSDEQLKSGTASVVCLLNNFYPREAKVQWKVDNALQSGNSQESVTEQDSKDSTYSLSSTLTLSKADYEKHKVYACEVTHQGLSSPVTKSFNRGEC
# notes: Humanized anti-human KIT IgG1 with mutated Fc, expressed in CHO cells; also called antibody mAb 1; anti-KIT antibody; copies: 2 + 2
# Assays:
# human KIT = human KIT (human, UniProt P10721 26-976); assay: cell-based or functional assay
# Sequence of human KIT (P10721 other isoform, or with tags, fused parts or gaps limits assumed): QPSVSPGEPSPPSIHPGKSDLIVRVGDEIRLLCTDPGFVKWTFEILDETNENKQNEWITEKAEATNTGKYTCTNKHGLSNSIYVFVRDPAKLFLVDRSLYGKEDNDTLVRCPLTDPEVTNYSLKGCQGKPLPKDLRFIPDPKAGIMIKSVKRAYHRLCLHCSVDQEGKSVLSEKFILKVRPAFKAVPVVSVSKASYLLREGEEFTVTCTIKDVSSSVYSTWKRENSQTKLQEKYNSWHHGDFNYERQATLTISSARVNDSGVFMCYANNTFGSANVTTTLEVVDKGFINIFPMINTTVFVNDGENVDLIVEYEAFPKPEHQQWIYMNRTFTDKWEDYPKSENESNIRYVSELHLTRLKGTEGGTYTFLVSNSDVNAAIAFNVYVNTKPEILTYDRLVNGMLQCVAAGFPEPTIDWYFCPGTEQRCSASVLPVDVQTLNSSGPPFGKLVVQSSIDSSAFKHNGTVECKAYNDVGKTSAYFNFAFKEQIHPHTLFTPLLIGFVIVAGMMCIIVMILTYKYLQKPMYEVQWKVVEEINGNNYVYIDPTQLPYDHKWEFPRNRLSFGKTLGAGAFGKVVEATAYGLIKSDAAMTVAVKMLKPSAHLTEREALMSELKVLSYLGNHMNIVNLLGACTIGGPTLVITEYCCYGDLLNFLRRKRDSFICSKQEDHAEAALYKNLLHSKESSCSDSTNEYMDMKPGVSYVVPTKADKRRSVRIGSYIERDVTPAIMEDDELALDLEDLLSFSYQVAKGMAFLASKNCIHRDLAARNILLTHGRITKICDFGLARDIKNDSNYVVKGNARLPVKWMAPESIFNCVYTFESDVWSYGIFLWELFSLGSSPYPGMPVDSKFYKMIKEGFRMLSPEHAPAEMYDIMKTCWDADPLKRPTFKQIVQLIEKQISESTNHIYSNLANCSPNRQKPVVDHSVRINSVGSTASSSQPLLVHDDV
# recombinant human FcγRI [1] = biological target: T3, recombinant human FcγRI (human, UniProt P12314 16-288); assay: BLI (Octet QKe), His-tagged receptor on anti-Penta-His biosensors, antibody in solution
# T3 construct: Histidine-tagged recombinant receptor captured on anti-Penta-His biosensors; also called FcgRI; not shown: histidine tag
# T3 sequence (P12314 16-288 limits assumed): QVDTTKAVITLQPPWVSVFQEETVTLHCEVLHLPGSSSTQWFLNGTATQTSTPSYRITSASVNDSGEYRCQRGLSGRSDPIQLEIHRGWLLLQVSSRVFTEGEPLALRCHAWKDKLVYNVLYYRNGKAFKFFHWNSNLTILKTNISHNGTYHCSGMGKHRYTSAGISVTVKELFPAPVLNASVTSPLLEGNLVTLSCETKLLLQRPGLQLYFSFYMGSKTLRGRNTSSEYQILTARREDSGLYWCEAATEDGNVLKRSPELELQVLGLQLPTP
# [2] = biological target: T1, recombinant human FcγRIIa; assay: as above
# Experimental: (§1) Binding to recombinant human Fc receptors was measured by bio-layer interferometry using an Octet® QKe instrument. […] Curve fitting was performed using the instrument's analysis software.
# [3] = biological target: T4, recombinant human FcγRIIIa (human, UniProt P08637 17-208); assay: as above
# T4 construct: Histidine-tagged recombinant receptor captured on anti-Penta-His biosensors; not shown: histidine tag
# T4 sequence (P08637 17-208 limits assumed): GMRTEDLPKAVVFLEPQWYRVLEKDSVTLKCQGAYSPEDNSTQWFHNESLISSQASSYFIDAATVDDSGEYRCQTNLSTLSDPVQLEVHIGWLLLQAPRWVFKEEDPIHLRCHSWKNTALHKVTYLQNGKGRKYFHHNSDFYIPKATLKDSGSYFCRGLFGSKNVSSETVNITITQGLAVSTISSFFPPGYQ
# [4] = biological target: T5, recombinant human FcγRIIIb (human, UniProt O75015 17-200); assay: as above
# T5 construct: Histidine-tagged recombinant receptor captured on anti-Penta-His biosensors; not shown: histidine tag
# T5 sequence (O75015 17-200 limits assumed): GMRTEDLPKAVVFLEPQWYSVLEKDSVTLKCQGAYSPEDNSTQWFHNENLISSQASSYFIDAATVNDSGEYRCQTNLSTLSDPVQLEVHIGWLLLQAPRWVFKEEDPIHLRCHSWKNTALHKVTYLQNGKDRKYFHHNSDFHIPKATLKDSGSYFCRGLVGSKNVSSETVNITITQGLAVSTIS
# [5] = biological target: T2, recombinant human FcγRIIb; assay: Bio-layer interferometry sensorgrams, FcγRIIb on the sensor, serial dilutions of antibody
# Experimental: as §1
# [6] = biological target: T6, human neonatal Fc Receptor (FcRn) (human, UniProt P55899 24-297; P61769 21-119); assay: BLI (Octet QKe) at pH 6.0, His-tagged receptor on anti-Penta-His biosensors; pH 6.0 (to simulate endocytic conditions)
# T6 construct: Histidine-tagged recombinant receptor captured on anti-Penta-His biosensors; not shown: histidine tag
# T6 sequence (P55899 24-297 limits assumed, chain 1 of 2): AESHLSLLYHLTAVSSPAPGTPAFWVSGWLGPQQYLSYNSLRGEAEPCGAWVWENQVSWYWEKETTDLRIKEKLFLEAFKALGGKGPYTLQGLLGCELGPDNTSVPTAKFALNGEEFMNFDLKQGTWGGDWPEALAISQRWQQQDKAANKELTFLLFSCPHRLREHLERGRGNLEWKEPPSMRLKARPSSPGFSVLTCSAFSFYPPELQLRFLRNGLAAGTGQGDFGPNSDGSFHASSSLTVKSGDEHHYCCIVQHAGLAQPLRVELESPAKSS
# T6 sequence (P61769 21-119 limits assumed, chain 2 of 2): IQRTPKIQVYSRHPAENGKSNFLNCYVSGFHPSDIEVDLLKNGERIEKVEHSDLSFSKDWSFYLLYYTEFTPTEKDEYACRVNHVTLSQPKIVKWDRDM
# recombinant human FcγRI [7] = biological target: T3, recombinant human FcγRI; assay: Bio-layer interferometry (Octet QKe), His-tagged FcγRI captured on anti-Penta-His biosensors; range 62.5-7.8 nM; fit R2 0.9955
# Experimental: as §1
# [8] = biological target: T1, recombinant human FcγRIIa; assay: Bio-layer interferometry (Octet QKe), His-tagged FcγRIIa captured on anti-Penta-His biosensors; range 500-62.5 nM; fit R2 0.9791
# Experimental: (§2) Binding to recombinant human Fc receptors was measured by bio-layer interferometry using an Octet® QKe instrument. […] Curve fitting was performed using the instrument's analysis software. Binding to FcRn was performed with association and dissociation steps at pH 6.0 as well as pH 7.2.
# [9] = biological target: T4, recombinant human FcγRIIIa; assay: Bio-layer interferometry (Octet QKe), His-tagged FcγRIIIa captured on anti-Penta-His biosensors; range 125-15.6 nM; fit R2 0.9895
# Experimental: as §2
# [10] = biological target: T5, recombinant human FcγRIIIb; assay: Bio-layer interferometry (Octet QKe), His-tagged FcγRIIIb captured on anti-Penta-His biosensors; range 500-62.5 nM; fit R2 0.9723
# Experimental: as §2
# recombinant human FcγRI [11] = biological target: T3, recombinant human FcγRI; assay: Bio-layer interferometry (Octet QKe), His-tagged FcγRI captured on anti-Penta-His biosensors; printed as Kdis; range 62.5-7.8 nM; fit R2 0.9955
# Experimental: as §2
# [12] = biological target: T1, recombinant human FcγRIIa; assay: Bio-layer interferometry (Octet QKe), His-tagged FcγRIIa captured on anti-Penta-His biosensors; printed as Kdis; range 500-62.5 nM; fit R2 0.9791
# Experimental: as §2
# [13] = biological target: T4, recombinant human FcγRIIIa; assay: Bio-layer interferometry (Octet QKe), His-tagged FcγRIIIa captured on anti-Penta-His biosensors; printed as Kdis; range 125-15.6 nM; fit R2 0.9895
# Experimental: as §2
# [14] = biological target: T5, recombinant human FcγRIIIb; assay: Bio-layer interferometry (Octet QKe), His-tagged FcγRIIIb captured on anti-Penta-His biosensors; printed as Kdis; range 500-62.5 nM; fit R2 0.9723
# Experimental: as §2
# [15] = biological target: T6, human neonatal Fc Receptor (FcRn); assay: Bio-layer interferometry (Octet QKe), His-tagged FcRn captured on anti-Penta-His biosensors, association and dissociation at pH 6.0; range 500-62.5 nM; fit R2 0.9757
# Experimental: as §2
# [16] = biological target: T6, human neonatal Fc Receptor (FcRn); assay: Bio-layer interferometry (Octet QKe), His-tagged FcRn captured on anti-Penta-His biosensors, association and dissociation at pH 6.0; printed as Kdis; range 500-62.5 nM; fit R2 0.9757
# Experimental: as §2
# (§3) Binding to the human neonatal Fc Receptor (FcRn) was tested at physiological pH 7.2 as well as at pH 6.0 to simulate endocytic conditions.
# [17] = biological target: T6, human neonatal Fc Receptor (FcRn); assay: BLI (Octet QKe) at pH 6.0, His-tagged receptor on anti-Penta-His biosensors
# Experimental: as §2, §3
# [18] = biological target: T6, human neonatal Fc Receptor (FcRn); assay: BLI (Octet QKe) at pH 7.2, His-tagged receptor on anti-Penta-His biosensors
# Experimental: as §2, §3
# [19] = biological target: T2, recombinant human FcγRIIb; assay: Bio-layer interferometry sensorgrams, FcγRIIb on the sensor, serial dilutions of antibody; remark: listed apart in the source
# Experimental: as §1
# [20] = biological target: T4, recombinant human FcγRIIIa; assay: Bio-layer interferometry sensorgrams, FcγRIIIa on the sensor, serial dilutions of antibody
# Experimental: as §1
# [21] = biological target: T5, recombinant human FcγRIIIb; assay: Bio-layer interferometry sensorgrams, FcγRIIIb on the sensor, serial dilutions of antibody
# Experimental: as §2
# recombinant human FcγRI [22] = biological target: T3, recombinant human FcγRI; assay: Bio-layer interferometry (Octet QKe), His-tagged FcγRI captured on anti-Penta-His biosensors
# Experimental: as §2
# [23] = biological target: T1, recombinant human FcγRIIa; assay: Bio-layer interferometry (Octet QKe), His-tagged FcγRIIa captured on anti-Penta-His biosensors
# Experimental: as §1
# [24] = biological target: T6, human neonatal Fc Receptor (FcRn); assay: Bio-layer interferometry (Octet QKe), His-tagged FcRn captured on anti-Penta-His biosensors, association and dissociation at pH 7.2; range 500-15.6 nM; fit R2 0.9876
# Experimental: as §2
# [25] = biological target: T6, human neonatal Fc Receptor (FcRn); assay: Bio-layer interferometry (Octet QKe), His-tagged FcRn captured on anti-Penta-His biosensors, association and dissociation at pH 6.0; range 31.25-1.9 nM; fit R2 0.9869
# Experimental: as §2, §3
# [26] = biological target: T6, human neonatal Fc Receptor (FcRn); assay: Bio-layer interferometry (Octet QKe), His-tagged FcRn captured on anti-Penta-His biosensors, association and dissociation at pH 7.2; printed as Kdis; range 500-15.6 nM; fit R2 0.9876
# Experimental: as §2, §3
# [27] = biological target: T6, human neonatal Fc Receptor (FcRn); assay: Bio-layer interferometry (Octet QKe), His-tagged FcRn captured on anti-Penta-His biosensors, association and dissociation at pH 6.0; printed as Kdis; range 31.25-1.9 nM; fit R2 0.9869
# Experimental: as §2
binder,measurement,setting,value
B1,"IC50, inhibition of SCF-dependent M-07e cell proliferation",human KIT,1.12 nM
same,Kd,recombinant human FcγRI [1],3.39 nM
same,Kd,[2],391 nM
same,Kd,[3],127 nM
same,Kd,[4],816 nM
same,binding result,[5],no binding (tested: 500 nM (range given in FIG. 7))
same,Kd,[6],211 nM
same,kon,recombinant human FcγRI [7],522000 M⁻¹ s⁻¹
same,kon,[8],358000 M⁻¹ s⁻¹
same,kon,[9],128000 M⁻¹ s⁻¹
same,kon,[10],152000 M⁻¹ s⁻¹
same,koff,recombinant human FcγRI [11],0.00177 s⁻¹
same,koff,[12],0.14 s⁻¹
same,koff,[13],0.0162 s⁻¹
same,koff,[14],0.124 s⁻¹
same,kon,[15],141000 M⁻¹ s⁻¹
same,koff,[16],0.0296 s⁻¹
B2,"IC50, inhibition of SCF-dependent M-07e cell proliferation",human KIT,1.11 nM
same,Kd,[17],0.38 nM
same,Kd,[18],77.1 nM
same,binding result,[19],no binding (tested: 500 nM (range given in FIG. 7))
same,binding result,[20],no binding (tested: 500 nM (range given in FIG. 7))
same,binding result,[21],no binding (tested: 500 nM (range given in FIG. 7))
same,binding result,recombinant human FcγRI [22],no binding (tested: 500 nM)
same,binding result,[23],no binding (tested: 500 nM)
same,kon,[24],1.05e+06 M⁻¹ s⁻¹
same,Kd,[25],0.383 nM
same,kon,[25],2e+06 M⁻¹ s⁻¹
same,koff,[26],0.0807 s⁻¹
same,koff,[27],0.000765 s⁻¹
